What was measured:
U2OS.SSTR2 cells = assay: Uptake/internalization studies in U2OS.SSTR2 cells; format: cell-based, human
Procedure: Cells were seeded in 6-well plates 24 h before the experiment (7 × 10^5 cells/well). […] The membrane-bound fraction was collected by incubating cells with an acid buffer (50 mM glycine, 100 mM NaCl, pH 2.8) for 10 min at rt. The internalized fraction was determined by lysing the cells with 1 M NaOH for 5 min at rt. Both fractions were measured in a gamma counter, and data were analyzed in GraphPad Prism v9 and expressed as percentage of added dose.

[1] = In vitro stability in PBS (radio-HPLC); format: physicochemical; conditions: 37 °C; for PBS (%) intact labeled ligand: n = 1
[2] = test system: H69-xenograft Balb/c nu/nu mice; assay: Ex vivo biodistribution in H69-tumor bearing mice; conditions: for Tumor uptake lower than the tumor uptake of [111In]In-DOTA-TATE: P < 0.05
Procedure: (§1) Six-week‐old female Balb/c nu/nu‐specific mice (Janvier Labs, Le Genest‐Saint‐Isle, France) were housed in individually ventilated cages (4 mice/cage). Upon arrival, mice were acclimated for one week, with access to food and water ad libitum. Mice were subcutaneously inoculated on the right shoulder with NCI-H69 cells (5 × 10^6 cells) suspended in 100 μL of 1/3 Matrigel (Corning Inc.; Corning, NY, USA) and 2/3 Hank’s balanced salt solution (Gibco; Paisley, UK). NCI-H69 xenografts were allowed to grow for 2 weeks.
(§2) At 3 selected time points (1, 4 and 24 h; n = 4) p.i., blood was collected via retro-orbital puncture under isoflurane/O2 anesthesia, after which the mice were sacrificed via cervical dislocation. The tumor and organs of interest (heart, lungs, liver, spleen, stomach, large intestine, small intestine, pancreas, kidneys, muscle, skin, bone) were excised, washed in PBS and blotted dry. […] To determine the total injected radioactivity per animal, a calibration curve with indium-111 was established using the gamma counter. The percentage of injected dose per gram (% ID/g) was determined for each tissue and corrected for both the injected activity and % ID present at the injection site (the tail). Then, the tumor and the organs were placed in a petri dish and ex vivo optical imaging was performed with the IVIS Spectrum system (Perkin Elmer, Waltham, MA, USA) using the following settings for all measurements: FOV 19.5 cm, medium binning, f2, 60 s exposure with an excitation/emission filter of 646 nm/662 nm. Living Image version 4.5.2 software (Perkin Elmer) was used to perform data analysis by drawing regions of interest around the organ/tissue to quantify the radiant efficiency {(photons/second/cm^2/steradian)/(μW/cm^2)}.

[3] = Ex vivo biodistribution in H69-tumor bearing mice; conditions: mouse, in vivo; for tissue uptake at 4 h / tissue uptake at 1 h / tissue uptake at 24 h: n = 4; for tissue uptake at 1 h: 1 h p.i.; for tissue uptake at 24 h: 24 h p.i.
Procedure: as §1, §2

[4] = Procedure: Distribution coefficient was determined by a shake-flask method. […] The vial was vortexed vigorously and then centrifuged at 10,000 rpm for 10 min for phase separation. Samples (100 μL) of the n-octanol and aqueous phases were taken and measured in the gamma counter. LogD7.4 value was calculated by using the following equation: LogD7.4 = log [(counts in n-octanol phase)/(counts in aqueous phase)]. Measurements were performed in triplicates.
in vitro = conditions: mouse, mouse serum, Mouse serum (%) intact labeled ligand, 37 °C, n = 1
Procedure: Stability of the radiolabeled peptide was monitored at 1, 4 and 24 h post incubation. The samples in PBS were directly analyzed by radio-HPLC without any pretreatment. However, samples in mouse serum were mixed with an equal volume of acetonitrile to precipitate the proteins. The solution was centrifuged for 10 min at 13,000 rpm and the supernatant was analyzed by radio-HPLC.

[5] = iv, 2 nmol, Uptake in Intestines

## C[C@@H](O)[C@H](NC(=O)[C@@H]1CSSC[C@H](NC(=O)[C@@H](Cc2ccccc2)NC(=O)CCC(C(=O)O)N2CCN(CC(=O)O)CCN(Cc3cccc(COCCCn4nnc5c4-c4ccccc4N(C(=O)CCCCCNC(=O)CCCCC[N+]4=C(C=CC=CC=C6N(C)c7ccc(S(=O)(=O)[O-])cc7C6(C)C)C(C)(C)c6cc(S(=O)(=O)O)ccc64)Cc4ccccc4-5)n3)CCN(CC(=O)O)CC2)C(=O)N[C@@H](Cc2ccc(O)cc2)C(=O)N[C@H](Cc2c[nH]c3ccccc23)C(=O)N[C@@H](CCCCN)C(=O)N[C@@H]([C@@H](C)O)C(=O)N1)C(=O)O (some centres unmarked) [[^111In]In-eTFC-01, metal not drawn]
U2OS.SSTR2 cells; 10^-9 M, 90 min, 37 °C
  Internalized fraction of radioactivity: 97%
U2OS.SSTR2 cells; 10^-9 M, 90 min, 37 °C, % of added dose per 1,000,000 cells, n = 3
  Total uptake: 20.87 ± 1.92 % AD
U2OS.SSTR2 cells; 50-fold excess DOTA-TATE
  Cell uptake with excess of unlabeled DOTA-TATE: almost completely blocked
  Drop of the cell uptake in presence of an excess of DOTA-TATE: 95%
[1]; up to 24 h
  Degradation in PBS buffer: No degradation
[1]; 1 h
  PBS (%) intact labeled ligand: 99.0%
[1]; 4 h
  PBS (%) intact labeled ligand: 99.0%
[1]; 24 h
  PBS (%) intact labeled ligand: 99.0%
[2]; 1 h p.i.
  Tumor uptake lower than the tumor uptake of [111In]In-DOTA-TATE: 54%
[2]; 4 h p.i., compared to the unblocked group
  Tumor uptake reduction by co-injection of an excess of DOTA-TATE: 40%
[2]; 24 h p.i.
  Tumor uptake lower than the tumor uptake of [111In]In-DOTA-TATE: 31%
[3]; 2 nmol, Tumor uptake, from 1 h to 24 h post injection
  tissue uptake: 2 to 3 %ID/g
[3]; Uptake in Blood, 4 h block (co-injected 50 nmol DOTA-TATE)
  tissue uptake at 4 h: 4.11 ± 0.16 %ID/g
[3]; Uptake in Bones, 4 h block (co-injected 50 nmol DOTA-TATE)
  tissue uptake at 4 h: 1.53 ± 0.27 %ID/g
[3]; Uptake in Heart, 4 h block (co-injected 50 nmol DOTA-TATE)
  tissue uptake at 4 h: 2.14 ± 0.46 %ID/g
[3]; Uptake in Intestines, 4 h block (co-injected 50 nmol DOTA-TATE)
  tissue uptake at 4 h: 1.48 ± 0.13 %ID/g
[3]; Uptake in Kidneys, 4 h block (co-injected 50 nmol DOTA-TATE)
  tissue uptake at 4 h: 46.6 ± 6.34 %ID/g
[3]; Uptake in Liver, 4 h block (co-injected 50 nmol DOTA-TATE)
  tissue uptake at 4 h: 10.6 ± 1.55 %ID/g
[3]; Uptake in Lungs, 4 h block (co-injected 50 nmol DOTA-TATE)
  tissue uptake at 4 h: 6.05 ± 0.59 %ID/g
[3]; Uptake in Muscle, 4 h block (co-injected 50 nmol DOTA-TATE)
  tissue uptake at 4 h: 0.67 ± 0.08 %ID/g
[3]; Uptake in Pancreas, 4 h block (co-injected 50 nmol DOTA-TATE)
  tissue uptake at 4 h: 0.95 ± 0.23 %ID/g
[3]; Uptake in Skin, 4 h block (co-injected 50 nmol DOTA-TATE)
  tissue uptake at 4 h: 3.61 ± 0.4 %ID/g
[3]; Uptake in Spleen, 4 h block (co-injected 50 nmol DOTA-TATE)
  tissue uptake at 4 h: 3.97 ± 0.9 %ID/g
[3]; Uptake in Stomach, 4 h block (co-injected 50 nmol DOTA-TATE)
  tissue uptake at 4 h: 0.43 ± 0.12 %ID/g
[3]; Uptake in Tumor, 4 h block (co-injected 50 nmol DOTA-TATE)
  tissue uptake at 4 h: 1.81 ± 0.14 %ID/g
[3]; iv, 2 nmol, Uptake in Blood
  tissue uptake at 1 h: 6.96 ± 0.68 %ID/g
  tissue uptake at 24 h: 0.64 ± 0.11 %ID/g
[3]; iv, 2 nmol, Uptake in Blood, 4 h p.i.
  tissue uptake at 4 h: 4.7 ± 0.24 %ID/g
[3]; iv, 2 nmol, Uptake in Bones
  tissue uptake at 1 h: 2.29 ± 0.17 %ID/g
  tissue uptake at 24 h: 0.98 ± 0.21 %ID/g
[3]; iv, 2 nmol, Uptake in Bones, 4 h p.i.
  tissue uptake at 4 h: 1.7 ± 0.23 %ID/g
[3]; iv, 2 nmol, Uptake in Heart
  tissue uptake at 1 h: 4.14 ± 0.76 %ID/g
  tissue uptake at 24 h: 0.74 ± 0.12 %ID/g
[3]; iv, 2 nmol, Uptake in Heart, 4 h p.i.
  tissue uptake at 4 h: 2.5 ± 0.17 %ID/g
[3]; [5]
  tissue uptake at 1 h: 1.85 ± 0.24 %ID/g
  tissue uptake at 24 h: 0.44 ± 0.09 %ID/g
[3]; iv, 2 nmol, Uptake in Intestines, 4 h p.i.
  tissue uptake at 4 h: 1.85 ± 0.24 %ID/g
[3]; iv, 2 nmol, Uptake in Kidneys
  tissue uptake at 1 h: 33.2 ± 3.27 %ID/g
  tissue uptake at 24 h: 30.6 ± 5.9 %ID/g
[3]; iv, 2 nmol, Uptake in Kidneys, 4 h p.i.
  tissue uptake at 4 h: 36.6 ± 2.02 %ID/g
[3]; iv, 2 nmol, Uptake in Liver
  tissue uptake at 1 h: 8.88 ± 0.9 %ID/g
  tissue uptake at 24 h: 6.03 ± 1.14 %ID/g
[3]; iv, 2 nmol, Uptake in Lungs
  tissue uptake at 1 h: 8.07 ± 1.18 %ID/g
  tissue uptake at 24 h: 1.75 ± 0.19 %ID/g
[3]; iv, 2 nmol, Uptake in Lungs, 4 h p.i.
  tissue uptake at 4 h: 7.71 ± 0.87 %ID/g
[3]; iv, 2 nmol, Uptake in Muscle
  tissue uptake at 1 h: 1.07 ± 0.1 %ID/g
  tissue uptake at 24 h: 0.26 ± 0.05 %ID/g
[3]; iv, 2 nmol, Uptake in Muscle, 4 h p.i.
  tissue uptake at 4 h: 0.73 ± 0.08 %ID/g
[3]; iv, 2 nmol, Uptake in Pancreas
  tissue uptake at 1 h: 1.99 ± 0.26 %ID/g
  tissue uptake at 24 h: 0.64 ± 0.18 %ID/g
[3]; iv, 2 nmol, Uptake in Pancreas, 4 h p.i.
  tissue uptake at 4 h: 1.28 ± 0.17 %ID/g
[3]; iv, 2 nmol, Uptake in Skin
  tissue uptake at 1 h: 5.73 ± 1.28 %ID/g
  tissue uptake at 24 h: 1.54 ± 0.35 %ID/g
[3]; iv, 2 nmol, Uptake in Skin, 4 h p.i.
  tissue uptake at 4 h: 3.78 ± 0.35 %ID/g
[3]; iv, 2 nmol, Uptake in Spleen
  tissue uptake at 1 h: 5.09 ± 0.72 %ID/g
  tissue uptake at 24 h: 2.03 ± 0.43 %ID/g
[3]; iv, 2 nmol, Uptake in Spleen, 4 h p.i.
  tissue uptake at 4 h: 3.58 ± 1.02 %ID/g
[3]; iv, 2 nmol, Uptake in Stomach
  tissue uptake at 1 h: 2.66 ± 0.49 %ID/g
  tissue uptake at 24 h: 0.77 ± 0.22 %ID/g
[3]; iv, 2 nmol, Uptake in Stomach, 4 h p.i.
  tissue uptake at 4 h: 1.41 ± 0.19 %ID/g
[3]; iv, 2 nmol, Uptake in Tumor
  tissue uptake at 1 h: 2.56 ± 0.38 %ID/g
  tissue uptake at 24 h: 2.21 ± 0.31 %ID/g
[3]; iv, 2 nmol, Uptake in Tumor, 4 h p.i.
  tissue uptake at 4 h: 3.04 ± 0.49 %ID/g
[4]; n-octanol/PBS pH 7.4, n = 3
  LogD7.4: negative
[4]; pH 7.4
  logD: -0.7 ± 0.06
In vitro; 1 h
  remaining at 1 h: 97.9%
In vitro; 4 h
  remaining at 4 h: 86%
In vitro; 24 h
  remaining at 24 h: 71%
